# Results from paper PMC6945068.
# Target: ^35S-labelled in vitro-translated Flag-B56γ (X. laevis PP2A regulatory B subunit B56γ)
# Assay: pull-down (amylose beads) with autoradiography quantification
# Conditions: 1 h, read off a plot
# Chain of MBP-fused Apc1-loop^500 wild type (residues 515-584 of Xenopus tropicalis Apc1) (Q08D52 entry or part of it, stated change not applied): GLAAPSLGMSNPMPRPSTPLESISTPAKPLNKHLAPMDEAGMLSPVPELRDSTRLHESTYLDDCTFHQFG
substance,measurement,setting,value
MBP-fused Apc1-loop^500 wild type (residues 515-584 of Xenopus tropicalis Apc1) (from UniProt Q08D52) T532A; T539A; S558A,response,"anaphase extract (Ana) supplemented with CycB∆167, 23°C, lane 16, parent: est. 3.3",1.1 A.U.
same,response,"interphase extract (Inter), 23°C, lane 12, parent: est. 0.95",1.1 A.U.
